T1: mouse Claudin-6 (CLDN6) (mouse, UniProt Q9Z262 1-219)
T1 construct: whole, on cells; GFP fusion on engineered HEK293T cells; also called Mouse CLDN6; murine CLDN6
T1 sequence (looked up): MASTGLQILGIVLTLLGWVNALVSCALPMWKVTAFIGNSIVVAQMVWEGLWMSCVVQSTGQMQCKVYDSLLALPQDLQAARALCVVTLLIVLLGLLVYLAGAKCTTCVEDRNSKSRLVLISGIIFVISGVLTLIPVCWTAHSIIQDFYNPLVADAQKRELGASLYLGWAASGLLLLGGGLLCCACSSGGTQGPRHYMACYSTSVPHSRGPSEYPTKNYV

T2: Claudin-9 (CLDN9) (human, UniProt O95484 1-217)
T2 construct: whole, on cells; also called CLDN9-GFP; CLDN9-mGFP
T2 sequence (looked up): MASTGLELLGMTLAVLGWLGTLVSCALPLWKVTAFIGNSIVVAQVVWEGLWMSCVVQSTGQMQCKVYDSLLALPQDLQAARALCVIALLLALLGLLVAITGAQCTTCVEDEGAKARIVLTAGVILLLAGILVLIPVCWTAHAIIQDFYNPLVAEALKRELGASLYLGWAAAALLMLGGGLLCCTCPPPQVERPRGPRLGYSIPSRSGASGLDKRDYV

T3: Claudin-4 (CLDN4) (human, UniProt O14493 1-209)
T3 construct: whole, on cells; also called CLDN4-GFP; CLDN4-mGFP
T3 sequence (looked up): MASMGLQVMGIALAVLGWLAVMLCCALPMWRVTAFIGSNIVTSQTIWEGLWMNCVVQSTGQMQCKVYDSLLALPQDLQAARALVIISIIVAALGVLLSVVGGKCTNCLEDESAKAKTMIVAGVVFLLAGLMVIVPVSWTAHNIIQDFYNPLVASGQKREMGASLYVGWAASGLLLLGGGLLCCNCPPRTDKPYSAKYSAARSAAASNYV


Assays:
[1] = biological target: CLDN3/4 (endogenous on LS513 or MCF7 cells); test: FACS titration of labelled mAb on LS513 cells (endogenous CLDN3/4+)
mouse Claudin-6 (CLDN6) = biological target: T1, mouse Claudin-6 (CLDN6); test: FACS titration of labelled mAb on HEK293T mouse CLDN6-mGFP cells
Description: (§1) CLDN6 antibodies were tested from 0.32 nM to 1000 nM (serial dilution 1:5, 6 points) in a 50 μl volume with 150,000 cells system.
(§2) CLDN6-expressing cells were used in FACS assays to determine the CLDN6 antibody's ability to bind to CLDN6 on the surface of cells and to cross-react with other CLDN family members. HEK293 T cells engineered to express human CLDN6 fused to GFP, mouse CLDN6 fused to GFP, CLDN9-GFP, CLDN4-GFP, or CLDN3-GFP, or GFP alone (without CLDN6) were used as artificial models of CLDN6 expression.
(§3) For each type of cell tested and for each mAb, cells were detached from the surface of the culture flasks by EDTA (instead of trypsin) in order to protect the cell surface proteins. The detached cells were then incubated with Alexa Fluor®-labeled CLDN6 mAbs for 30 min in the dark on ice at a pre-determined concentration. […] After washing, the cells were read by a BD Accuri™ Flow Cytometer C6 to detect antibody-antigen protein binding in channel FL4H. Each antibody was tested at varied concentrations to establish a dose-fluorescence curve. […] Cross-reactivity data were obtained using a similar methodology, but with cells having a different expression profile for CLDN6, CLDN3, CLDN4 and CLDN9.

Claudin-9 (CLDN9) = biological target: T2, Claudin-9 (CLDN9); test: FACS titration of labelled mAb on HEK293T CLDN9-mGFP cells
Description: as §1, §2, §3

Claudin-4 (CLDN4) = biological target: T3, Claudin-4 (CLDN4); test: FACS titration of labelled mAb on HEK293T CLDN4-mGFP cells
Description: as §1, §2, §3

[2] = biological target: CLDN3/4 (endogenous on LS513 or MCF7 cells); test: FACS titration of labelled mAb on MCF7 cells (endogenous CLDN3/4+)
[3] = biological target: human Claudin-6 (CLDN6) (human) (UniProt P56747); test: FACS titration of labelled mAb on HEK293T-CLDN6-mGFP cells
[4] = biological target: human Claudin-6 (CLDN6) (human) (UniProt P56747); test: FACS titration of labelled mAb on OVCA429 cells (endogenous CLDN6+)
[5] = biological target: human Claudin-6 (CLDN6) (human) (UniProt P56747); test: FACS titration of labelled mAb on ARK2 cells (endogenous CLDN6+)

Row | Binder | EC50 [1] | EC50 (mouse Claudin-6 (CLDN6)) | EC50 (Claudin-9 (CLDN9)) | EC50 (Claudin-4 (CLDN4)) | EC50 [2] | EC50 [3] | EC50 [4] | EC50 [5]
1 | AB6 (antibody, V domains shown, full-length IgG (ExpiCHO)) VH: DVQLQESGPGLVKSSQSLSLTCSVTGYSITSGYYWKWIRQFPGNKLEWMGYISYDGGINYNPSLKNRISITRDTSKNQFFLKLNSVTTEDTAKYYCARFGKGAMDYWGQGTSVTVSS VL: AIVMFQSPSSLVVSAGEKVTMSCKSSQSLLNSRTRKNYLAWYQQKPGQSPKLLIYWASTRESGVPDRFTGSGSGTDFTLTISSVQAEDLAVYYCKQSYYLYTFGGGTKLEIK | 133 nM | 2220 nM | 2770 nM | 26 nM | 1140 nM | 1430 nM | 394 nM | 765 nM
2 | AB11 (antibody, V domains shown, full-length IgG (ExpiCHO)) VH: DVQLVESGGGLVQPRGSRKLSCAASGFTFSSFGMHWVRQAPEKGLEWVAYISSDSRTIYYADTVKGRFTISRDNPTNTLFLQMTSLRSEDTAMYYCARDYGRTYEAYWGQGTLVTVSA VL: DIVLTQSPASLAVSLGQRATISCRASKSVSTSGYSYIHWYQQKPGQPPKLLIYLASNLESGVPARFSGSGSGTDFTLNIHPVEEEDAATYYCQHSRELPLTFGAGTKLELK | 493 nM | 2380 nM | – | 2240 nM | 427 nM | 1700 nM | 835 nM | 363 nM
3 | AB3 (antibody, V domains shown, full-length IgG (ExpiCHO)) VH: EVKLEESGGGLVQPGGSMKLSCVASGFTFSNYWMNWVRQSPEKGLEWVAQIRLKSDNYATHYAESVKGRFTISRDDSKRSVYLQMNNLRAEDTGTYYCNDGPPSGCWGQGTTLIVSS VL: DIQMTQSPASLSASVGETVTITCRISENIYSYLAWYQQKQGKSPQLLVYNAKILVEGVPSRFSGSGSGTQFSLKINSLQPEDFGNYYCQHHYTVPWTFGGGTKLEIK | 5000 nM | 2490 nM | – | – | 5000 nM | 604 nM | 1100 nM | 1650 nM
4 | AB4 (antibody, V domains shown, full-length IgG (ExpiCHO)) VH: QVQLQQSGAELARPGASVKMSCKASGYTFTSYTMHWIKQRPGQGQEWIGYINPSSTYTHYIKKFKDKATLTADKSSSTAYMQLRSLTSEDSAVYYCSRGELGGFAYWGQGTLVTVSA VL: DVVMTQTPLSLPVSLGDQASISCRSSQSLVHSDGNTYLNWYLQKPGQSPKLLIYKVSNRFSGVPDRFSGSGSGTDFTLKIRRVEAEDLGVYFCSQSTHVPYTFGGGTKLEIK | 730 nM | ≥ 5000 nM | 1860 nM | – | 653 nM | 17 nM | 168 nM | 48 nM
5 | AB10 (antibody, V domains shown, full-length IgG (ExpiCHO)) VH: QIQLVQSGPALKKPGETVKISCKASGYTFTDYSMHWIKQAPGKGLKWMGWISTETGEPTYADGFKGRFDFSLETSADTAYLSINNLTNEDTATYFCTRGLWSSFAYWGQGTLVTVSA VL: DVVMTQTPLSLPVSLGDQASISCRASQSLVHSNGNTYLHWFLQKPGQSPKLLIYKVSNRFSGVPDRFSGSGSRTDFTLKISRVEAEDLGVYFCSQITHVPYTFGGGTKLEIK | 1950 nM | – | 246 nM | – | 5000 nM | 2760 nM | 2470 nM | 2140 nM
6 | AB5 (antibody, V domains shown, full-length IgG (ExpiCHO)) VH: EVQLQQSGPELVKPGASVKMSCKASGYIFTHYIMHWVKQKPGQGLEWIGCINPYNDGTKYNEKFKGKATLTSDKSSSTAYMELSSLTSEDSAVYYCARYYGYPYYSMDYWGQGTSVTVSS VL: DVLMTQTPLSLPVSLGDQPSISCRSSQSIVHSNGNTYLDWYLQKPGQSPKLLIYKVSNRFSGVPDRFSGSGSGTDFTLKISRVEAEDLGVYYCFQGSHVPFTFGSGTRLEIK | 781 nM | 11 nM | 25 nM | – | 1480 nM | 10 nM | 5 nM | 8 nM
7 | AB12 (antibody, V domains shown, full-length IgG (ExpiCHO)) VH: EVKLMESGGDLVKPGGSLKLSCAASGFTFSSYAMSWVRQTPEKRLEWVASIRSGGTTYYPDSVKGRFTISRDNARNILYLRMSSLRSEDTAIYYCAKVGGNPYPMDYWGQGTSVTVSS VL: DIQMIQSPSSMFASLGDRVSLSCRASQDIGGNLDWYQQKPGGTIKLLIYSTSNLNSGVPSRFSGSGSGSDYSLTITSLESEDFADYYCLQRNAYPLTFGAGTKLELK | 2270 nM | – | 2470 nM | 2090 nM | 5000 nM | 5000 nM | 2290 nM | 1300 nM

Continued by falling EC50 [1], values first:

Row | EC50 [1] | EC50 (mouse Claudin-6 (CLDN6)) | EC50 (Claudin-9 (CLDN9)) | EC50 (Claudin-4 (CLDN4)) | EC50 [2] | EC50 [3] | EC50 [4] | EC50 [5] | Binder
8 | 5000 nM | ≥ 5000 nM | – | ≥ 5000 nM | 5000 nM | 5000 nM | 5000 nM | 5000 nM | AB15 (antibody, V domains shown, full-length IgG (ExpiCHO)) VH: DVQLVESGGGLVQPRGSRKLSCAASGFTFSSFGMHWVRQAPEKGLEWVAYISSDSRTIYYADTVKGRFTISRDNPTNTLFLQMTSLRSEDTAMYYCARDYGRTYEAYWGQGTLVTVSA VL: NIMMTQSPSSLAVSAGEKVTMSCKSSQSVLFSSNQKNYLAWYQQKPGQSPRLLIYWASTRESGVPDRFTGSGSGTDFTLTISNVQAEDLAVYYCHQYLSSRTFGAGTKLELK
9 | 5000 nM | 72 nM | 2760 nM | – | 5000 nM | 109 nM | 84 nM | 105 nM | AB1 (antibody, V domains shown, full-length IgG (ExpiCHO)) VH: QVQLQQSAAELARPGASVKMSCKASGYTFTTYTMHWVKQRPGQGLEWIGFINPSSGYTDYNQKFKDRTTLTADKSSSTVYMQLSSLTSEDSAVYYCANGDYYVAYWGQGTLVTVSA VL: QIVLTQSPAIMSASLGERVTMTCTASSSVSSTYFHWYQQKPGSSPKLWIYSTSNLASGVPRRFSGSASGTSYSLTISSMEAEDAATYYCHQYHRSPLTFGAGTKLELK
10 | 1130 nM | ≥ 5000 nM | 2770 nM | ≥ 5000 nM | 1060 nM | 1920 nM | 1090 nM | 1140 nM | AB8 (antibody, V domains shown, full-length IgG (ExpiCHO)) VH: QVQLQQSGAELARPGASVKMSCKASGYTFTTYTMHWLKQRPGQGLEWIGYINPRSGYSNYNQKFKDKATLTADKSSNTAYMQLNTLTSEDSKVYYCSRGELGGFAYWGQGTLVTVSA VL: DVVMTQTPLSLPVSLGDQASISCRSSQSLVHSDGNTYLYWYLQKPGQSPKLLIYKVSNRFSGVPDRFSGSGSGTDFTLKISRVEAEDLGVYFCSQSTHVPYTFGGGTKLEIK
11 | 635 nM | 1550 nM | 1940 nM | 2090 nM | 979 nM | 579 nM | 531 nM | 353 nM | AB7 (antibody, V domains shown, full-length IgG (ExpiCHO)) VH: EVQLQQSGPELVKPGASMKISCKASGYSFTGYTMNWVKQSHGKNLEWIGLINPYNGGTNYNQKFKGKATLTVDKSSSTAYMELLSLTSEDSAVYYCARGVYDYDGFTYWGQGTLVTVSA VL: QIVLTQSPAIMSASLGDRVTMTCTASSSVSSSYLHWYQQKPGSSPKLWIYSTSNLASGVPARFSGSGSGTSYSLTISSMEAEDAATYYCHQYHRSPPTFGSGTKLEIK
